In patent US20060167227A1:

What was measured:
[1] = biological target: tau monoclonal antibody (Example 5, FIG. 5); experiment: competitive ELISA
[2] = biological target: tau monoclonal antibody (Example 5, FIG. 5); experiment: competitive ELISA; printed as apparent affinity = antigen concentration for 50% competition with prototype tau type IA

fold decrease in affinity against prototype tau type IA (SEQ ID NO:1) [1] | IC50 [2] | Substance
1000 fold |  | deletion mutant SEQ ID NO: 21 (268-333,R4;del 239-267) (from UniProt O02828 288-353)
 | 10 nM | prototype tau type IA (SEQ ID NO:1) (239-333,R4) (from UniProt O02828 259-353)
